Consider one molecule from patent US20260209320A1 (ALCHEMAB THERAPEUTICS, published 2026).

In assay [1] the target is T1, WT Human HTT Exon 1 25Q (GST) (human).
T1 construct: recombinant His- and GST-tagged fusion; also called Wild type Huntingtin (HTT) exon 1
In words: HTT sandwich ELISA, biological repeat 3. In general terms: An ELISA detects its analyte on a solid surface through an enzyme-linked reagent.

In assay [2] the target is T2, Mutant Human HTT Exon 1 48Q (GST) (human).
T2 construct: recombinant His- and GST-tagged fusion; also called HTT Exon 1 Q48; 48Q HTT Exon-1
As to the kind of experiment: HTT sandwich ELISA; EC50 on HTT Exon 1 25Q over EC50 on HTT Exon 1 48Q.

Assay [3] addresses T1, WT Human HTT Exon 1 25Q (GST). In words: HTT sandwich ELISA, biological repeat 1.
For assay [4] the target is unchanged. In words: HTT sandwich ELISA, biological repeat 2.
The target of assay [5] is T2, Mutant Human HTT Exon 1 48Q (GST). As to the kind of experiment: HTT sandwich ELISA, biological repeat 2.
The next assay has as its target T3, Murine HTT antigen (murine).
T3 construct: antigen of the murine HTT direct ELISA; also called murine HTT protein
T3 chain: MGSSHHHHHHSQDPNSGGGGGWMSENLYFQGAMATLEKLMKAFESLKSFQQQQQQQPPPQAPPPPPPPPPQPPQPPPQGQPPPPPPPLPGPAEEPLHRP
As to the kind of experiment: direct ELISA on coated murine HTT antigen.

Assay [6] has as its target T2, Mutant Human HTT Exon 1 48Q (GST). As to the kind of experiment: HTT sandwich ELISA, average of repeats.
Assay [7] has the same target. In words: HTT sandwich ELISA, biological repeat 1.
For assay [8], the target named is T1, WT Human HTT Exon 1 25Q (GST). As to the kind of experiment: HTT sandwich ELISA, average of repeats.
For a further assay, the target named is T4, CACNA1A (human, UniProt O00555 1-2506).
T4 construct: whole, on cells; also called Another poly Q protein
In words: Retrogenix cell microarray, HEK293 cells.

The target of another assay is T5, human lysozyme (human, UniProt P61626 19-148).
T5 sequence (looked up): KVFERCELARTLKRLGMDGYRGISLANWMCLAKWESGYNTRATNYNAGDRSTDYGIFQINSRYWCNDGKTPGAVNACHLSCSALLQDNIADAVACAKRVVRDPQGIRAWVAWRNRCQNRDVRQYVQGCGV
In words: direct ELISA.

The target in assay [9] is T2, Mutant Human HTT Exon 1 48Q (GST). As to the kind of experiment: HTT sandwich ELISA, biological repeat 3.

T1 sequence (chain, as listed by the source limits assumed, change not shown): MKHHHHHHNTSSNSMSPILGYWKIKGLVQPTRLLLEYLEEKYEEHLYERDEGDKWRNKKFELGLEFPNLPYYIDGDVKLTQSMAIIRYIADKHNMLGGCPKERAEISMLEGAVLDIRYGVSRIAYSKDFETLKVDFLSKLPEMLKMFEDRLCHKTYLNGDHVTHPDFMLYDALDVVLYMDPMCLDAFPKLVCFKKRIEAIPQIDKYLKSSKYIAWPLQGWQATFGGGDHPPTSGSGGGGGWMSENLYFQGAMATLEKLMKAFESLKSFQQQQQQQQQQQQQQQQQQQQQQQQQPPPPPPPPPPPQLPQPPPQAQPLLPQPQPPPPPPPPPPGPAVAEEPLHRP
T2 sequence (chain, as listed by the source mutant limits assumed): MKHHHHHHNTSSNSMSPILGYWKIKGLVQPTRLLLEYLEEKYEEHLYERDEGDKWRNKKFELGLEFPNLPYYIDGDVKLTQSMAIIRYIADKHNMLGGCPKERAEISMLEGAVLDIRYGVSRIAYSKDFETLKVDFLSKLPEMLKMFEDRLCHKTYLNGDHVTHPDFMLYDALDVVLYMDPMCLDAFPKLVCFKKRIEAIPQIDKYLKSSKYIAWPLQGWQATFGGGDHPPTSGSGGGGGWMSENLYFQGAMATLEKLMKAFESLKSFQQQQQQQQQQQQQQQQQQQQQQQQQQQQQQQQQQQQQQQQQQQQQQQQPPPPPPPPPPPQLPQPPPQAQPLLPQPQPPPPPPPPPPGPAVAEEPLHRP
T4 sequence (O00555 whole entry): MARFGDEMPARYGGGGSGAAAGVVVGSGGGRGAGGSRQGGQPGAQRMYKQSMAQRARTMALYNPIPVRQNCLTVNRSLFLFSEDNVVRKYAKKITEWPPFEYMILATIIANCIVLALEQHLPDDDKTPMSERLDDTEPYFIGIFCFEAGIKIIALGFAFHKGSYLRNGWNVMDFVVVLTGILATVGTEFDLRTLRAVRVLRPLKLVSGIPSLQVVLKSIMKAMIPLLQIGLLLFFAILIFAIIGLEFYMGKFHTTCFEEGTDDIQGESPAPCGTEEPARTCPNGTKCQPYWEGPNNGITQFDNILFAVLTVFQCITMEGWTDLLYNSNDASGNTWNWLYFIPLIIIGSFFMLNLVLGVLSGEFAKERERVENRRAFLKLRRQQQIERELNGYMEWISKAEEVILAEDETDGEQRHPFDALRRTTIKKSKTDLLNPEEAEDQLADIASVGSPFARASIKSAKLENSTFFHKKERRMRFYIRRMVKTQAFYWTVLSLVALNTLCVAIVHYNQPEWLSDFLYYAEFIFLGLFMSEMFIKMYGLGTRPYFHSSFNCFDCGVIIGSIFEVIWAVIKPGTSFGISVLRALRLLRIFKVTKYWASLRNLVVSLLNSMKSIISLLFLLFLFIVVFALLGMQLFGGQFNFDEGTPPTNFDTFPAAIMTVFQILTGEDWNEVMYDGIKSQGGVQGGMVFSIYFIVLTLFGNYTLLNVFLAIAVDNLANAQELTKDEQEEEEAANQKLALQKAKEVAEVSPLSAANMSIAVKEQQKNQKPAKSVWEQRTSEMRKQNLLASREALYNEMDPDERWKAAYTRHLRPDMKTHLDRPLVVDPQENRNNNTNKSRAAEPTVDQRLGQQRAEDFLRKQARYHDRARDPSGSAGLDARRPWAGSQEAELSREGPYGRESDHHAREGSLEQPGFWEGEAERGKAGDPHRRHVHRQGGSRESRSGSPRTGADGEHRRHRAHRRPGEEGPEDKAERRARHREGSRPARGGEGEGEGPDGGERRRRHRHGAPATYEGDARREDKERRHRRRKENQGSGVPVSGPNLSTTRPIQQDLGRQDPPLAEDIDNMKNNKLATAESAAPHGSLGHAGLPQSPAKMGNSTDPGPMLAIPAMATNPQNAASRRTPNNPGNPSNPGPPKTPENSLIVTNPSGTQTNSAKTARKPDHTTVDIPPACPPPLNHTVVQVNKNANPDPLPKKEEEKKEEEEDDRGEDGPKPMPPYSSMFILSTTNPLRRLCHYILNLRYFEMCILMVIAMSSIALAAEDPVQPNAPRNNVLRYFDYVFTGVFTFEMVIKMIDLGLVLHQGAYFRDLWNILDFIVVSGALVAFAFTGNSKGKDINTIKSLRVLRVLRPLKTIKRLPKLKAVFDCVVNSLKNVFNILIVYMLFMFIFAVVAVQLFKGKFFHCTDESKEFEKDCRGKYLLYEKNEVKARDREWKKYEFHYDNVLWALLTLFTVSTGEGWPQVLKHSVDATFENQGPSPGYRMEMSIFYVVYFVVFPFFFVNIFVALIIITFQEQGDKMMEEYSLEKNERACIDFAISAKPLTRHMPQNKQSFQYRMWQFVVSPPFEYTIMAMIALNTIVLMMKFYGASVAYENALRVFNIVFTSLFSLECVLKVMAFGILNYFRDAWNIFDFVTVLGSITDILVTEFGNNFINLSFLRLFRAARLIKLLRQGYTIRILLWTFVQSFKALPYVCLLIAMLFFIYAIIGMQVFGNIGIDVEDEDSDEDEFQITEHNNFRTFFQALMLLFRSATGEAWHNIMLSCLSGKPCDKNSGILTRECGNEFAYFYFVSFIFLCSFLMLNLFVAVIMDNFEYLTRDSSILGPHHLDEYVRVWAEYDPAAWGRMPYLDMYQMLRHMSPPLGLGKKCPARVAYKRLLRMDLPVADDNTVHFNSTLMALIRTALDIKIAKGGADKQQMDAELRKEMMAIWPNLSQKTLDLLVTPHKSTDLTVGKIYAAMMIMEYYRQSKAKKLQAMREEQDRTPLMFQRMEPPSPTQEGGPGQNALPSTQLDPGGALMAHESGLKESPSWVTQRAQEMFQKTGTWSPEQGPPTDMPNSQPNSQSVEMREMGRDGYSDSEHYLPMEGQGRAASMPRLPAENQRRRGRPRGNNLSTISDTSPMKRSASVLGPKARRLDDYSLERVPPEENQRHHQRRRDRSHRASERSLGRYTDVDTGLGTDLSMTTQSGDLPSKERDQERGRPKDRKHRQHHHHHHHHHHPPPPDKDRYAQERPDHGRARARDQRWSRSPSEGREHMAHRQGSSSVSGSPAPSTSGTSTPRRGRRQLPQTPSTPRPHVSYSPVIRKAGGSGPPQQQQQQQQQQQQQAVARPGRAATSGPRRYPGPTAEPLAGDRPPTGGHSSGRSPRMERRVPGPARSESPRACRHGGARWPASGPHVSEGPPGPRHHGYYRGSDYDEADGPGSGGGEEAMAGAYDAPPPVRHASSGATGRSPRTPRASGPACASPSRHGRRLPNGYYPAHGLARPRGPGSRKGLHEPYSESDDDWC

B1: ATL_0005895 (antibody, V domains shown)
VH: EVQLVESGGGLVKPGGSLRLSCAASGFTFNKAWMSWVRQAPGKGLEWVGRIKSGIDAGTTDYAAPVKGRFTISRDDSKNTLYLQMNSLKTEDTAVYYCIPPPYYYYYGLDVWGQGTTVTVSS
VL: QSALTQPRSVSGSPGQSVTISCTGTSSDVGSYNLVSWYQQHPGKAPKLMIYEVNKRPSGVPDRFSGSKSGATASLTISGLQAEDEADYYCGSYAGTANVFGTGTKVTVL
notes: human IgG1; also called ATL_5895; ATL5895
On to B1, for which the EC50 is 4.39 nM in assay [1]; 2.97 nM in assay [3]; 3.91 nM in assay [4]; 3.83 nM in assay [5]; 2.08 nM in assay [6]; 0.731 nM in assay [7]. Further, the concentration giving a half-maximal response (EC50) was determined as 3.71 nM in assay [8] and 3.2 nM in assay [9]. In addition, the “Ratio of EC50 for 25Q:48Q HTT Exon 1” value in assay [2] stood at 1.79. In addition, the binding result with Murine HTT antigen is on record as “binds”; with CACNA1A it was “no binding (tested: 2 µg/mL antibody)”; in the assay with human lysozyme it was “no binding (tested: less than 1 µM)”.

By EC50 is commonly meant the concentration giving half of the maximal effect. The low end stands for greater potency, the high end for weaker potency.
